As usually defined, the Kd is the equilibrium constant for the complex coming apart.

We go through six molecules from article PMC8096230.

First the molecules themselves.
B1: GRE1 mut (dsDNA)
DNA 1: TGAGTCAGGATTGAGTATTCTCACGG
DNA 2: CCGTGAGAACACTCAGTCCTGACTCA
B2: NSP (non-specific probe) (dsDNA)
DNA 1: TGGGCTGAGGCTGGGTGTGGCCCGAC
DNA 2: GTCGGGCCACACCCAGCCTCAGCCCA
B3: GRE2 mut (dsDNA)
DNA 1: AGGCTGGGTATACAGAATGCCCTGCC
DNA 2: GGCAGGGCACTCTGTGTACCCAGCCT
B4: GRE (Gilz) / GREgilz (dsDNA)
DNA 1: TGAGTCAGAACATTGGGTTCCCACGG
DNA 2: CCGTGGGAACCCAATGTTCTGACTCA
B5: GRE1 (Eif4ebp2 GBSe1) (dsDNA)
DNA 1: TGAGTCAGGACTGAGTGTTCTCACGG
DNA 2: CCGTGAGAACACTCAGTCCTGACTCA
B6: GRE2 (Eif4ebp2 GBSe2) (dsDNA)
DNA 1: AGGCTGGGTACACAGAGTGCCCTGCC
DNA 2: GGCAGGGCACTCTGTGTACCCAGCCT

In one data set the target is T1, GR DBD (human, UniProt P04150 412-506). Description: EMSA.
T1 sequence (P04150 412-506): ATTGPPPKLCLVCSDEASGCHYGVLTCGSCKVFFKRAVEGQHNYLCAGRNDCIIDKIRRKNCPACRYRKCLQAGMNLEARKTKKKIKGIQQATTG
With B1, the binding result was “no binding”.

On to B2, for which the binding result is given as “no binding”.

As to B3, the binding result was “no binding”.

For a further data set, the target named is T1, GR DBD. Description: MST.
For the molecule B4, the Kd is 0.154 µM. Same read-out and setting: in the case of B5 it was 0.195 µM; in that of B6, 0.204 µM.
